B1: CPEB3 Ribozyme (parent)
chain: GGGGGCCACAGCAGAAGCGUUCACGUCGCGGCCCCUGUCAGAUUCUGGUGAAUCUGCGAAUUCUGCUGU

Variants of: B1
Assay: self-cleavage, relative activity (ratio to wild type); higher = more cleavage; co-transcriptional

Point of comparison: GGGGGCCACAGCAGAAGCGUUCACGUCGCGGCCCCUGUCAGAUUAUGGUGAAUCUGCGAAUUCUCCUGU, self-cleavage 0.533. Against it:
- GGGGGCCACAGCAGAAGCGUUCACGUCGCGGCCCCUGUCAGAUUGUGGUGUAUCUGCGAAUUCUGCUGU — higher, 1.03
- GGGGGCCACAGCAGAAGCGUUCACGUCGCGGCCCCUGUCAGAUUGUGGUGGAUCUGCGAAUUCUGCUGU — higher, 1.02
- GGGGGCCACAGCAGAAGCGUUCACGUCGCGGCCCCUGUCAGAUUGUGGUGCAUCUGCGAAUUCUGCUGU — higher, 1.01
- GGGGGCCACAGCAGAAGCGUUCACGUCGCGGCCCCUGUCAGAUUGAGGUGAAUCUGCGAAUUCUGCUGU — higher, 0.631
- GGGGGCCACAGCAGAAGCGUUCACGUCGCGGCCCCUGUCAGAUUGGGGUGAAUCUGCGAAUUCUGCUGU — higher, 0.966
- GGGGGCCACAGCAGAAGCGUUCACGUCGCGGCCCCUGUCAGAUUGCGGUGAAUCUGCGAAUUCUGCUGU — higher, 0.999
- GGGGGCCACAGCAGAAGCGUUCACGUCGCGGCCCCUGUCAGAUUAUGGUGAAUCAGCGAAUUCUGCUGU — higher, 0.534
- GGGGGCCACAGCAGAAGCGUUCACGUCGCGGCCCCUGUCAGAUUAUGGUGAAUCGGCGAAUUCUGCUGU — lower, 0.475
- GGGGGCCACAGCAGAAGCGUUCACGUCGCGGCCCCUGUCAGAUUAUGGUGAAUCUGCGAAUUCCGCUGU — higher, 0.842
- GGGGGCCACAGCAGAAGCGUUCACGUCGCGGCCCCUGUCAGAUUAUGGUGAAUCUGCGAAUUCAGCUGU — higher, 0.821
- GGGGGCCACAGCAGAAGCGUUCACGUCGCGGCCCCUGUCAGAUUAUGGUGAAUCUGCGAAUUCGGCUGU — higher, 0.809
- GGGGGCCACAGCAGAAGCGUUCACGUCGCGGCCCCUGUCAGAUUGUGGUGAAUCUGCGAAUUCCGCUGU — higher, 0.836
- GGGGGCCACAGCAGAAGCGUUCACGUCGCGGCCCCUGUCAGAUUGUGGUGAAUCUGCGAAUUCGGCUGU — higher, 0.739
- GGGGGCCACAGCAGAAGCGUUCACGUCGCGGCCCCUGUCAGAUUAUGGUGAAUCUGCGAAUUCUGCCGU — higher, 0.98
- GGGGGCCACAGCAGAAGCGUUCACGUCGCGGCCCCUGUCAGAUUAUGGUGAAUCUGCGAAUUCUGCGGU — higher, 1.01
- GGGGGCCACAGCAGAAGCGUUCACGUCGCGGCCCCUGUCAGAUUAUGGUGAAUCUGCGAAUUCUGCAGU — higher, 0.951
- GGGGGCCACAGCAGAAGCGUUCACGUCGCGGCCCCUGUCAGAUUAUGGUGAAUCUGCGAAGUCUGCUGU — higher, 0.6
- GGGGGCCACAGCAGAAGCGUUCACGUCGCGGCCCCUGUCAGAUUAUGGUGAAUCUGCGAAAUCUGCUGU — higher, 0.86
- GGGGGCCACAGCAGAAGCGUUCACGUCGCGGCCCCUGUCAGAUUGUGGUGAAUCUGCGGAUUCUGCUGU — higher, 0.969
- GGGGGCCACAGCAGAAGCGUUCACGUCGCGGCCCCUGUCAGAUUGUGGUGAAUCUGCGCAUUCUGCUGU — higher, 0.638
- GGGGGCCACAGCAGAAGCGUUCACGUCGCGGCCCCUGUCAGAUUGUGGUGAAUCUGCGUAUUCUGCUGU — higher, 0.815
- GGGGGCCACAGCAGAAGCGUUCACGUCGCGGCCCCUGUCAGAUUAUGGUGAAUCUUCGAAUUCUGCUGU — higher, 0.695
- GGGGGCCACAGCAGAAGCGUUCACGUCGCGGCCCCUGUCAGAUUGUGGUGAAUCUGCGAUUUCUGCUGU — lower, 0.407
- GGGGGCCACAGCAGAAGCGUUCACGUCGCGGCCCCUGUCAGAUUGUGGUGAAUCUGCGAGUUCUGCUGU — higher, 0.897
- GGGGGCCACAGCAGAAGCGUUCACGUCGCGGCCCCUGUCAGAUUGUGGUGAAUCUGCGACUUCUGCUGU — lower, 0.493
- GGGGGCCACAGCAGAAGCGUUCACGUCGCGGCCCCUGUCAGAUUGUGGUGAAUCGGCGAAUUCUGCUGU — higher, 0.648
- GGGGGCCACAGCAGAAGCGUUCACGUCGCGGCCCCUGUCAGAUUGUGGUGAAUCAGCGAAUUCUGCUGU — higher, 0.797
- GGGGGCCACAGCAGAAGCGUUCACGUCGCGGCCCCUGUCAGAUUGUGGUGAAUCCGCGAAUUCUGCUGU — lower, 0.487
- GGGGGCCACAGCAGAAGCGUUCACGUCGCGGCCCCUGUCAGAUUGUGGUGAAUCUGGGAAUUCUGCUGU — lower, 0.328
- GGGGGCCACAGCAGAAGCGUUCACGUCGCGGCCCCUGUCAGAUUGUGGUGAAUCUGUGAAUUCUGCUGU — lower, 0.366
- GGGGGCCACAGCAGAAGCGUUCACGUCGCGGCCCCUGUCAGAUUGUGGUGAAUCUGAGAAUUCUGCUGU — lower, 0.318
- GGGGGCCACAGCAGAAGCGUUCACGUCGCGGCCCCUGUCAGAUUGUGGUGAAUCUGCCAAUUCUGCUGU — higher, 0.946
- GGGGGCCACAGCAGAAGCGUUCACGUCGCGGCCCCUGUCAGAUUGUGGUGAAUCUGCAAAUUCUGCUGU — higher, 0.919
- GGGGGCCACAGCAGAAGCGUUCACGUCGCGGCCCCUGUCAGAUUGUGGUGAAUCUGCUAAUUCUGCUGU — higher, 1.01
- GGGGGCCACAGCAGAAGCGUUCACGUCGCGGCCCCUGUCAGAUUGUGGUGAAUCUGCGAAGUCUGCUGU — higher, 0.731
- GGGGGCCACAGCAGAAGCGUUCACGUCGCGGCCCCUGUCAGAUUGUGGUGAAUCUGCGAAAUCUGCUGU — higher, 0.922
- GGGGGCCACAGCAGAAGCGUUCACGUCGCGGCCCCUGUCAGAUUGUGGUGAAUCUGCGAACUCUGCUGU — higher, 0.757
- GGGGGCCACAGCAGAAGCGUUCACGUCGCGGCCCCUGUCAGAUUAUGGUGAAUCUGCGAAUCCUGCUGU — higher, 0.85
- GGGGGCCACAGCAGAAGCGUUCACGUCGCGGCCCCUGUCAGAUUAUGGUGAAUCUGCGAAUGCUGCUGU — higher, 0.832
- GGGGGCCACAGCAGAAGCGUUCACGUCGCGGCCCCUGUCAGAUUAUGGUGAAUCUGCGAAUACUGCUGU — higher, 0.846
- GGGGGCCACAGCAGAAGCGUUCACGUCGCGGCCCCUGUCAGAUUGUGGUGACUCUGCGAAUUCUGCUGU — higher, 0.981
- GGGGGCCACAGCAGAAGCGUUCACGUCGCGGCCCCUGUCAGAUUGUGGUGAAUCUACGAAUUCUGCUGU — higher, 0.881
- GGGGGCCACAGCAGAAGCGUUCACGUCGCGGCCCCUGUCAGAUUGUGGUGAAUCUGCGAAUUUUGCUGU — higher, 0.964
- GGGGGCCACAGCAGAAGCGUUCACGUCGCGGCCCCUGUCAGAUUGUGCUGAAUCUGCGAAUUCUGCUGU — higher, 1.01
- GGGGGCCACAGCAGAAGCGUUCACGUCGCGGCCCCUGUCAGAUUGUGUUGAAUCUGCGAAUUCUGCUGU — higher, 1.02
- GGGGGCCACAGCAGAAGCGUUCACGUCGCGGCCCCUGUCAGAUUGUGAUGAAUCUGCGAAUUCUGCUGU — higher, 1.01
- GGGGGCCACAGCAGAAGCGUUCACGUCGCGGCCCCUGUCAGAUUGUGGUCAAUCUGCGAAUUCUGCUGU — higher, 1.01
- GGGGGCCACAGCAGAAGCGUUCACGUCGCGGCCCCUGUCAGAUUGUGGUAAAUCUGCGAAUUCUGCUGU — higher, 1.01
- GGGGGCCACAGCAGAAGCGUUCACGUCGCGGCCCCUGUCAGAUUAUGGCGAAUCUGCGAAUUCUGCUGU — higher, 1
- GGGGGCCACAGCAGAAGCGUUCACGUCGCGGCCCCUGUCAGAUUAUGGUGAAUCUGCAAAUUCUGCUGU — higher, 1
- GGGGGCCACAGCAGAAGCGUUCACGUCGCGGCCCCUGUCAGAUUAUGGUGAAUCUGCCAAUUCUGCUGU — higher, 1.02
- GGGGGCCACAGCAGAAGCGUUCACGUCGCGGCCCCUGUCAGAUUGUGGUGAAUCUGCGAAUUCUGCUCU — higher, 1
- GGGGGCCACAGCAGAAGCGUUCACGUCGCGGCCCCUGUCAGAUUGUGGUGAAUCUGCGAAUUCUGCUAU — higher, 0.942
- GGGGGCCACAGCAGAAGCGUUCACGUCGCGGCCCCUGUCAGAUUGUGGUGAAUUUGCGAAUUCUGCUGU — higher, 0.952
- GGGGGCCACAGCAGAAGCGUUCACGUCGCGGCCCCUGUCAGAUUGUGGUGAAUGUGCGAAUUCUGCUGU — higher, 0.688
- GGGGGCCACAGCAGAAGCGUUCACGUCGCGGCCCCUGUCAGAUUGUGGUGAAUCUGCGAAUUCUACUGU — higher, 0.87
- GGGGGCCACAGCAGAAGCGUUCACGUCGCGGCCCCUGUCAGAUUGUGGUGAAUCUGCGAAUUCUUCUGU — higher, 0.832
- GGGGGCCACAGCAGAAGCGUUCACGUCGCGGCCCCUGUCAGAUUAUGGUGAAUCUGCGAAUUCUGCUGG — higher, 1.06
- GGGGGCCACAGCAGAAGCGUUCACGUCGCGGCCCCUGUCAGAUUAUGGUGAAUCUGCGAAUUCUGCUGC — higher, 1.07
- GGGGGCCACAGCAGAAGCGUUCACGUCGCGGCCCCUGUCAGAUUAUGGUGAAUCUGCGAAUUCUGCUGA — higher, 1
- GGGGGCCACAGCAGAAGCGUUCACGUCGCGGCCCCUGUCAGAUUAUGGUGAAACUGCGAAUUCUGCUGU — higher, 0.87
- GGGGGCCACAGCAGAAGCGUUCACGUCGCGGCCCCUGUCAGAUUGUGGUGAAUCUGCGAAUUCUGGUGU — higher, 0.877
- GGGGGCCACAGCAGAAGCGUUCACGUCGCGGCCCCUGUCAGAUUGUGGUGAAUCUGCGAAUUCUGCUGU — higher, 0.986
- GGGGGCCACAGCAGAAGCGUUCACGUCGCGGCCCCUGUCAGAUUGUAGUGAAUCUGCGAAUUCUGCUGU — higher, 1.03
- GGGGGCCACAGCAGAAGCGUUCACGUCGCGGCCCCUGUCAGAUUAGGGUGAAUCUGCGAAUUCUGCUGU — higher, 0.917
- GGGGGCCACAGCAGAAGCGUUCACGUCGCGGCCCCUGUCAGAUUACGGUGAAUCUGCGAAUUCUGCUGU — higher, 1
- GGGGGCCACAGCAGAAGCGUUCACGUCGCGGCCCCUGUCAGAUUAAGGUGAAUCUGCGAAUUCUGCUGU — higher, 1.01
- GGGGGCCACAGCAGAAGCGUUCACGUCGCGGCCCCUGUCAGAUUGUGGUGAAUCUGCGAAUCCUGCUGU — higher, 0.798
- GGGGGCCACAGCAGAAGCGUUCACGUCGCGGCCCCUGUCAGAUUGUGGUGAAUCUGCGAAUGCUGCUGU — higher, 0.81
- GGGGGCCACAGCAGAAGCGUUCACGUCGCGGCCCCUGUCAGAUUGUGGGGAAUCUGCGAAUUCUGCUGU — higher, 0.947
- GGGGGCCACAGCAGAAGCGUUCACGUCGCGGCCCCUGUCAGAUUGUGGCGAAUCUGCGAAUUCUGCUGU — higher, 0.915
- GGGGGCCACAGCAGAAGCGUUCACGUCGCGGCCCCUGUCAGAUUGUGGUGAAGCUGCGAAUUCUGCUGU — higher, 0.858
- GGGGGCCACAGCAGAAGCGUUCACGUCGCGGCCCCUGUCAGAUUGUGGUGAACCUGCGAAUUCUGCUGU — higher, 0.806
- GGGGGCCACAGCAGAAGCGUUCACGUCGCGGCCCCUGUCAGAUUAUGGUGAAUCUGCGAAUUCUGCUUU — higher, 0.998
- GGGGGCCACAGCAGAAGCGUUCACGUCGCGGCCCCUGUCAGAUUAUGGUGAAUCUGCGAAUUCUGCUCU — higher, 0.965
- GGGGGCCACAGCAGAAGCGUUCACGUCGCGGCCCCUGUCAGAUUAUGGUGAAUCUGCGAAUUCUGCUAU — higher, 1.02
- GGGGGCCACAGCAGAAGCGUUCACGUCGCGGCCCCUGUCAGAUUAUGGUGAAUCUGCGAAUUCUUCUGU — higher, 0.729

Source: the RNAGym collection of RNA variant scans (doi:10.7554/elife.80360)
